{
  "source": "paper doi:10.1101/2025.08.04.668577",
  "about": "(bioRxiv, 2025)",
  "molecular_target": "E2 ectodomain of HCV strain 1a154 (Hepatitis C virus genotype 1a, isolate …, strain)",
  "assay": "ELISA",
  "data": [
    {"binder": "HEPC108 IgG (antibody, V domains shown) VH: QVQLVQSGAEVKKPGSSVKVSCKASGDTFSSSAISWVRQAPGQGLEWMGGSIPIFGATKYAQKFQGRVTITTDKSTSTAYMELSSLRFEDTAVYYCARASIVNISGFVRFRFDSWGQGTLVTVSS VL: DIQMTQSPSSLSASVGDRVTITCQASQDISNYLNWYQQKPGKAPKLLIYDVSNLEIGVPSRFSGSGSGTEFTLTINSLQPEDLATYFCQHYDDVPPVYTFGQGTSLEIK", "values": [
      {"measurement": "binding result", "value": "binds"}
    ]}
  ]
}
